Positions count from the first letter of the chain named. In names and notes the source's numbering stands.
B1: hS4B6-H6K3-hu01 (antibody, V domains shown)
VH: QVQLVQSGAEVKKPGATVKISCKVSGYTITAYYLHWVRQAPGQGLEWIGRIDPEDDSTKYAENFKNRVTITADTSTNTAYMELSSLRSEDTAVYYCTTVTFYYSRELRWFAYWGQGTLVTVSS
VL: DIVLTQSPATLSLSPGERATLSCQASQDIGNYLSWYQQKPGQAPRLLIYSATSLADGIPARFSGSRSGTDYTLTISSLEPEDFAVYYCLQHYSTPYTFGQGTKLEIK
notes: H6K3 with heavy chain D27Y
B2: hS4B6-H6K3-hu02 (antibody, V domains shown)
VH: B1 VH with Y27D, I29F
VL: B1 VL
notes: H6K3 with heavy chain I29F
B3: hS4B6-H6K3-hu03 (antibody, V domains shown)
VH: B1 VH with Y27D, A31D
VL: B1 VL
notes: H6K3 with heavy chain A31D
B4: hS4B6-H6K3-hu04 (antibody, V domains shown)
VH: B1 VH with Y27D, L34M
VL: B1 VL
notes: H6K3 with heavy chain L34M
B5: hS4B6-H6K3-hu05 (antibody, V domains shown)
VH: B1 VH with Y27D, I48M
VL: B1 VL
notes: H6K3 with heavy chain I48M
B6: K1G1 (antibody, V domains shown)
VH: B1 VH with Y27D, L34M, N66G, N77D
VL: B1 VL with D28Y, G30S, S50Q, D56S, Y71F
B7: K1G8 (antibody, V domains shown)
VH: B1 VH with Y27D, L34M, N66G, N77D, V99I, Y102L
VL: B1 VL with D28Y, G30S, S50Q, D56S, Y71F
B8: K1G9 (antibody, V domains shown)
VH: B1 VH with Y27D, L34M, N66G, N77D, V99I, Y102L, S104T
VL: B1 VL with D28Y, G30S, S50Q, D56S, Y71F
B9: K1G11 (antibody, V domains shown)
VH: B1 VH with Y27D, L34M, E54D, N66G, N77D, V99I, Y102L
VL: B1 VL with D28Y, G30S, S50Q, D56S, Y71F
B10: K1G12 (antibody, V domains shown)
VH: B1 VH with Y27D, L34M, E54D, N66G, N77D, V99I, Y102L, S104T
VL: B1 VL with D28Y, G30S, S50Q, D56S, Y71F
B11: K2G2 (antibody, V domains shown)
VH: B1 VH with Y27D, L34M, N66G, N77D, V99I
VL: B1 VL with D28Y, G30S, D56S, Y71F
B12: K2G3 (antibody, V domains shown)
VH: B1 VH with Y27D, L34M, E54D, N66G, N77D
VL: B1 VL with D28Y, G30S, D56S, Y71F
B13: K2G4 (antibody, V domains shown)
VH: B1 VH with Y27D, L34M, N66G, N77D, Y102L
VL: B1 VL with D28Y, G30S, D56S, Y71F
B14: K2G5 (antibody, V domains shown)
VH: B1 VH with Y27D, L34M, N66G, N77D, S104T
VL: B1 VL with D28Y, G30S, D56S, Y71F
B15: K2G6 (antibody, V domains shown)
VH: B1 VH with Y27D, L34M, E54D, N66G, N77D, V99I
VL: B1 VL with D28Y, G30S, D56S, Y71F
B16: K2G7 (antibody, V domains shown)
VH: B1 VH with Y27D, L34M, N66G, N77D, V99I, S104T
VL: B1 VL with D28Y, G30S, D56S, Y71F
B17: K2G8 (antibody, V domains shown)
VH: B1 VH with Y27D, L34M, N66G, N77D, V99I, Y102L
VL: B1 VL with D28Y, G30S, D56S, Y71F
B18: K2G10 (antibody, V domains shown)
VH: B1 VH with Y27D, L34M, E54D, N66G, N77D, V99I, S104T
VL: B1 VL with D28Y, G30S, D56S, Y71F
B19: K3G1 (antibody, V domains shown)
VH: B1 VH with Y27D, L34M, N66G, N77D
VL: B1 VL with D28Y, S50Q, D56S, Y71F
B20: K3G2 (antibody, V domains shown)
VH: B1 VH with Y27D, L34M, N66G, N77D, V99I
VL: B1 VL with D28Y, S50Q, D56S, Y71F
B21: K3G3 (antibody, V domains shown)
VH: B1 VH with Y27D, L34M, E54D, N66G, N77D
VL: B1 VL with D28Y, S50Q, D56S, Y71F
B22: K3G4 (antibody, V domains shown)
VH: B1 VH with Y27D, L34M, N66G, N77D, Y102L
VL: B1 VL with D28Y, S50Q, D56S, Y71F
B23: K3G5 (antibody, V domains shown)
VH: B1 VH with Y27D, L34M, N66G, N77D, S104T
VL: B1 VL with D28Y, S50Q, D56S, Y71F
B24: K3G6 (antibody, V domains shown)
VH: B1 VH with Y27D, L34M, E54D, N66G, N77D, V99I
VL: B1 VL with D28Y, S50Q, D56S, Y71F
B25: K3G7 (antibody, V domains shown)
VH: B1 VH with Y27D, L34M, N66G, N77D, V99I, S104T
VL: B1 VL with D28Y, S50Q, D56S, Y71F
B26: K3G8 (antibody, V domains shown)
VH: B1 VH with Y27D, L34M, N66G, N77D, V99I, Y102L
VL: B1 VL with D28Y, S50Q, D56S, Y71F
B27: K3G9 (antibody, V domains shown)
VH: B1 VH with Y27D, L34M, N66G, N77D, V99I, Y102L, S104T
VL: B1 VL with D28Y, S50Q, D56S, Y71F
B28: K3G10 (antibody, V domains shown)
VH: B1 VH with Y27D, L34M, E54D, N66G, N77D, V99I, S104T
VL: B1 VL with D28Y, S50Q, D56S, Y71F
B29: K4G1 (antibody, V domains shown)
VH: B1 VH with Y27D, L34M, N66G, N77D
VL: B1 VL with D28Y, D56S, Y71F
B30: K4G2 (antibody, V domains shown)
VH: B1 VH with Y27D, L34M, N66G, N77D, V99I
VL: B1 VL with D28Y, D56S, Y71F
B31: K4G3 (antibody, V domains shown)
VH: B1 VH with Y27D, L34M, E54D, N66G, N77D
VL: B1 VL with D28Y, D56S, Y71F
B32: K4G4 (antibody, V domains shown)
VH: B1 VH with Y27D, L34M, N66G, N77D, Y102L
VL: B1 VL with D28Y, D56S, Y71F
B33: K4G5 (antibody, V domains shown)
VH: B1 VH with Y27D, L34M, N66G, N77D, S104T
VL: B1 VL with D28Y, D56S, Y71F
B34: K4G6 (antibody, V domains shown)
VH: B1 VH with Y27D, L34M, E54D, N66G, N77D, V99I
VL: B1 VL with D28Y, D56S, Y71F
B35: K4G7 (antibody, V domains shown)
VH: B1 VH with Y27D, L34M, N66G, N77D, V99I, S104T
VL: B1 VL with D28Y, D56S, Y71F
B36: K4G8 (antibody, V domains shown)
VH: B1 VH with Y27D, L34M, N66G, N77D, V99I, Y102L
VL: B1 VL with D28Y, D56S, Y71F
B37: K4G10 (antibody, V domains shown)
VH: B1 VH with Y27D, L34M, E54D, N66G, N77D, V99I, S104T
VL: B1 VL with D28Y, D56S, Y71F
B38: K4G12 (antibody, V domains shown)
VH: B1 VH with Y27D, L34M, E54D, N66G, N77D, V99I, Y102L, S104T
VL: B1 VL with D28Y, D56S, Y71F

target: T1, hIL2-DM-his (human, UniProt P60568 21-153); experiment: BLI ForteBio, Ab on Protein A sensor
T1 construct: expressed in ExpiCHO-S cells, nickel-column purified; also called hIL-2 mutein containing two point mutations K64G and N90R (with a his-tag); not shown: his-tag
T1 sequence (P60568 21-153 K84G/N110R): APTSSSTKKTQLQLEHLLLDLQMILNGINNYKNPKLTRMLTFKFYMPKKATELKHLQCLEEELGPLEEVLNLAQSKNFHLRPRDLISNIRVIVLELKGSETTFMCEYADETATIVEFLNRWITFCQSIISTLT

Row | Binder | binding result | Binding Response (nm) | Kd | koff | kon
1 | B1 | no binding (tested: 100 nM (highest antigen concentration)) |  |  |  | 
2 | B2 | no binding (tested: 100 nM (highest antigen concentration)) |  |  |  | 
3 | B3 | no binding (tested: 100 nM (highest antigen concentration)) |  |  |  | 
4 | B4 |  | 0.143 nm | 34.6 nM | 0.0149 s⁻¹ | 430000 M⁻¹ s⁻¹
5 | B5 |  | 0.139 nm | 39.4 nM | 0.0152 s⁻¹ | 387000 M⁻¹ s⁻¹

target: T1, hIL2-DM-his; experiment: BLI ForteBio, Ab on Protein A sensor; remark: another data set of the same source
Experimental: After each cycle of association and dissociation steps, the sensor was regenerated by 10 mM glycine buffer (pH 1.5) and then stated with the next cycle of detection. After the detection, the association rate constant and dissociation rate constant between the antibody and antigen were fitted and extrapolated using the analytical software, and the value of affinity constant (KD) was calculated.

Row | Binder | Kd | koff | kon
6 | B6 | 1.43 nM | 0.000491 s⁻¹ | 343000 M⁻¹ s⁻¹
7 | B7 | 0.778 nM | 0.000291 s⁻¹ | 374000 M⁻¹ s⁻¹
8 | B8 | 0.856 nM | 0.000285 s⁻¹ | 333000 M⁻¹ s⁻¹
9 | B9 | 0.928 nM | 0.000373 s⁻¹ | 401000 M⁻¹ s⁻¹
10 | B10 | 0.927 nM | 0.000396 s⁻¹ | 428000 M⁻¹ s⁻¹
11 | B11 | 1.33 nM | 0.000562 s⁻¹ | 424000 M⁻¹ s⁻¹
12 | B12 | 1.32 nM | 0.000512 s⁻¹ | 389000 M⁻¹ s⁻¹
13 | B13 | 1.08 nM | 0.000455 s⁻¹ | 421000 M⁻¹ s⁻¹
14 | B14 | 1.4 nM | 0.000553 s⁻¹ | 396000 M⁻¹ s⁻¹
15 | B15 | 1.33 nM | 0.000593 s⁻¹ | 446000 M⁻¹ s⁻¹
16 | B16 | 1.35 nM | 0.000489 s⁻¹ | 361000 M⁻¹ s⁻¹
17 | B17 | 1.13 nM | 0.000507 s⁻¹ | 448000 M⁻¹ s⁻¹
18 | B18 | 0.973 nM | 0.000418 s⁻¹ | 429000 M⁻¹ s⁻¹
19 | B19 | 4.4 nM | 0.00186 s⁻¹ | 424000 M⁻¹ s⁻¹
20 | B20 | 2.91 nM | 0.00118 s⁻¹ | 407000 M⁻¹ s⁻¹
21 | B21 | 3.34 nM | 0.00134 s⁻¹ | 400000 M⁻¹ s⁻¹
22 | B22 | 3 nM | 0.00122 s⁻¹ | 408000 M⁻¹ s⁻¹

Row | Binder | Kd | koff | kon
23 | B23 | 3.72 nM | 0.00124 s⁻¹ | 334000 M⁻¹ s⁻¹
24 | B24 | 2.13 nM | 0.000844 s⁻¹ | 397000 M⁻¹ s⁻¹
25 | B25 | 1.96 nM | 0.000656 s⁻¹ | 336000 M⁻¹ s⁻¹
26 | B26 | 1.5 nM | 0.000446 s⁻¹ | 297000 M⁻¹ s⁻¹
27 | B27 | 1.49 nM | 0.000529 s⁻¹ | 356000 M⁻¹ s⁻¹
28 | B28 | 1.46 nM | 0.000585 s⁻¹ | 402000 M⁻¹ s⁻¹
29 | B29 | 4.28 nM | 0.00151 s⁻¹ | 352000 M⁻¹ s⁻¹
30 | B30 | 3.72 nM | 0.00143 s⁻¹ | 384000 M⁻¹ s⁻¹
31 | B31 | 3.08 nM | 0.00108 s⁻¹ | 351000 M⁻¹ s⁻¹
32 | B32 | 2.25 nM | 0.00082 s⁻¹ | 364000 M⁻¹ s⁻¹
33 | B33 | 2.7 nM | 0.00113 s⁻¹ | 418000 M⁻¹ s⁻¹
34 | B34 | 2.33 nM | 0.000994 s⁻¹ | 426000 M⁻¹ s⁻¹
35 | B35 | 3.2 nM | 0.00127 s⁻¹ | 396000 M⁻¹ s⁻¹
36 | B36 | 2.49 nM | 0.000856 s⁻¹ | 344000 M⁻¹ s⁻¹
37 | B37 | 2.47 nM | 0.000907 s⁻¹ | 367000 M⁻¹ s⁻¹
38 | B38 | 0.686 nM | 0.000326 s⁻¹ | 476000 M⁻¹ s⁻¹

From patent publication US20250346644A1 (LATTICON SUZHOU BIOPHARMACEUTICALS, published 2025)
